The values that follow come from patent publication US20230050038A1 (WASHINGTON UNIVERSITY, published 2023).

Assay [1] has as its target T1, PDGFRβ soluble extracellular domain (UniProt P09619 33-532, limits assumed, fluorescently labeled).
T1 construct: extracellular domain; also called PDGFRβ ectodomain; soluble PDGFRβ
Nature of the assay: combinatorial yeast display library enriched by FACS for high binding signal to PDGFRβ ectodomain.

The target of assay [2] is T1, PDGFRβ soluble extracellular domain. Nature of the assay: yeast surface display, flow cytometry with soluble PDGFRβ.

T1 sequence (P09619 33-532 limits assumed): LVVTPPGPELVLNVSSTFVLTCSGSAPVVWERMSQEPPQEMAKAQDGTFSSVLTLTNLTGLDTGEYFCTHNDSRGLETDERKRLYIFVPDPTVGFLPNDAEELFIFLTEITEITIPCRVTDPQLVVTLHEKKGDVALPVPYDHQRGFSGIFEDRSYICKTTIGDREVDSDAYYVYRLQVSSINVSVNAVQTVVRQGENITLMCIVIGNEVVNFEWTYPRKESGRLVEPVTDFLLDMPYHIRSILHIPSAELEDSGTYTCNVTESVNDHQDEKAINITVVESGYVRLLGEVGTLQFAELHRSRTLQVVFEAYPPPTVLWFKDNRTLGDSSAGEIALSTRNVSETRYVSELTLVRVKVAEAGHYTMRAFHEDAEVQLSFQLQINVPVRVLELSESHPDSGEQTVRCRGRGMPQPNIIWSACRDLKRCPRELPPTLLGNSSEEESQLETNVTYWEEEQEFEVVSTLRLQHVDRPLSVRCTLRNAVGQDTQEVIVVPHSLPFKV

B1: Clone-01, PDGF-B variant displayed on the yeast surface (ligand)
chain: SLGSLTIAEPAMIAECKTRTELFRISRNLIDRTNANFLVWPPCVEVQRCSGCCNNRYVQCRPTQVQLRPVQVRKIEFVRKKPIFKKATVTLEDHLACRCETVAA
notes: not shown: Aga2p fusion partner, glycine-rich linkers and c-myc tag
Take B1: the binding result in assay [1] is given as “binds”.

B2: Clone-03, PDGF-B variant displayed on the yeast surface (ligand)
chain: SLGSLTIAEPAMIAECKTRTELFRISRNLIDRTNANFLVWPPCVEVQRCSGCCNNRYVQCRPTQVQLRPVQVRKIEFVRKKPIFKKATVTLEDHLACKCEKVAA
notes: as for B1
For B2, the binding result in assay [1] is “binds”.

B3: PDGF-B-cons (consensus sequence), displayed on the yeast surface (ligand)
chain: SLGSLTIAEPAMIAECKTRTEVFRISRNLIDRTNANFLVWPPCVEVQRCSGCCNNRYVQCRPTQVQLRPVQVRKIEFVRKKPIFKKATVTLEDHLACRCETVAA
notes: Consensus of the isolated clones, tested on the yeast surface; also called PDGF-BB-cons; not shown: Aga2p fusion partner, glycine-rich linkers and c-myc tag
In the case of B3, the binding result in assay [2] is “binds”.

B4: Clone-08, PDGF-B variant displayed on the yeast surface (ligand)
chain: SLGSLTIAEPAMIAECKTRTELFRISRNLIDRTNANFLVWPPCVEVQRCSGCCNNRYVQCRPTQVQLRPVQVRKIEIVRKKPIFKKATVTLEDHLACRCETVAA
notes: as for B1
For B4, the binding result in assay [1] is listed as “binds”.

B5: Clone-07, PDGF-B variant displayed on the yeast surface (ligand)
chain: SLGSLTIAEPAMIAECKTRTEVFEISRNLIDRTNANFLVWPPCVEVQRCSGCCNNRNVQCRPTQVQLRPVQVRKIEFVRKKPIFKKATVTLEDHLACKCETVAA
notes: as for B1
For B5, the binding result in assay [1] was “binds”.

B6: Clone-02, PDGF-B variant displayed on the yeast surface (ligand)
chain: SLGSLTIAEPAMIAECNTRTEVFRISRNLIDRTNANFLVWPPCVEVQRCSGCCNNRNVQCRPTQVQLRPVQVRKIEFVRKKPIFKKATVTLEDHLACRCEKVAA
notes: as for B1
Take B6: the binding result in assay [1] was “binds”.
